# Target: T1, TRF/Vmw 65/CFF complex (Homo sapiens, UniProt P51610)
# T1 construct: A nuclear extract of HeLa cells was prepared; from tissue; host or cells: HeLa cell nuclear extract (TRF, CFF)
# Assay: Peptide inhibition of quaternary complex assembly (gel retardation with HeLa nuclear extract, purified Vmw 65 and 32P-labelled TAATGARAT probe)
# Format: biochemical, HSV-1
# Set-up: key to Level of Inhibition: "+++" indicates a high level inhibition of complex formation; "++" indicates a lower level and so on; "-" indicates no inhibition of complex formation
# Protocol: A nuclear extract of HeLa cells was prepared exactly as described by Dignam et al., Nucl. Acids. Res. 11 1475-1489, (1983) (This is a standard protocol for the preparation of extracts containing cellular DNA binding proteins). Polypeptides from Vmw 65 amino acids were synthesised by Cambridge Research Biochemicals Ltd., Cambridge, UK, under contract, in accordance with the sequence set forth above. 1 μl volumes of phosphate buffered saline containing increasing amounts (100 ng, 500 ng, 1 μg, 2.5 μg, 5μg) of the polypeptide (amino acids 360-367) was added to a standard amount of HeLa cell nuclear extract (1 μl extract per 2 μg polypeptide). After incubation at 20° C. for 30 minutes a 1 μl sample of Vmw 65 protein, purified as described by P. O'Hare et al., EMBO J. 7: 4231-4238 (1988) was added to the extract polypeptide mixtures and incubation continued for a further 5 minutes in a buffer containing 25 mM HEPES pH 7.9, 1 mM EDTA, 5 mM DTT, 100 mM KCl, 0.05% NP40 10% glycerol, and 2 μg of salmon sperm DNA. A ^32 P radioactively labelled probe present in excess and encompassing nucleotides -171 to -149 (numbered starting upstream of the site of mRNA transcription: the TAATGARAT sequence is at -162 to -154) of the immediate-early IE110K gene of HSV-1 was then added and incubation continued for a further 25 minutes. […]
# T1 sequence (P51610 whole entry, one chain of several): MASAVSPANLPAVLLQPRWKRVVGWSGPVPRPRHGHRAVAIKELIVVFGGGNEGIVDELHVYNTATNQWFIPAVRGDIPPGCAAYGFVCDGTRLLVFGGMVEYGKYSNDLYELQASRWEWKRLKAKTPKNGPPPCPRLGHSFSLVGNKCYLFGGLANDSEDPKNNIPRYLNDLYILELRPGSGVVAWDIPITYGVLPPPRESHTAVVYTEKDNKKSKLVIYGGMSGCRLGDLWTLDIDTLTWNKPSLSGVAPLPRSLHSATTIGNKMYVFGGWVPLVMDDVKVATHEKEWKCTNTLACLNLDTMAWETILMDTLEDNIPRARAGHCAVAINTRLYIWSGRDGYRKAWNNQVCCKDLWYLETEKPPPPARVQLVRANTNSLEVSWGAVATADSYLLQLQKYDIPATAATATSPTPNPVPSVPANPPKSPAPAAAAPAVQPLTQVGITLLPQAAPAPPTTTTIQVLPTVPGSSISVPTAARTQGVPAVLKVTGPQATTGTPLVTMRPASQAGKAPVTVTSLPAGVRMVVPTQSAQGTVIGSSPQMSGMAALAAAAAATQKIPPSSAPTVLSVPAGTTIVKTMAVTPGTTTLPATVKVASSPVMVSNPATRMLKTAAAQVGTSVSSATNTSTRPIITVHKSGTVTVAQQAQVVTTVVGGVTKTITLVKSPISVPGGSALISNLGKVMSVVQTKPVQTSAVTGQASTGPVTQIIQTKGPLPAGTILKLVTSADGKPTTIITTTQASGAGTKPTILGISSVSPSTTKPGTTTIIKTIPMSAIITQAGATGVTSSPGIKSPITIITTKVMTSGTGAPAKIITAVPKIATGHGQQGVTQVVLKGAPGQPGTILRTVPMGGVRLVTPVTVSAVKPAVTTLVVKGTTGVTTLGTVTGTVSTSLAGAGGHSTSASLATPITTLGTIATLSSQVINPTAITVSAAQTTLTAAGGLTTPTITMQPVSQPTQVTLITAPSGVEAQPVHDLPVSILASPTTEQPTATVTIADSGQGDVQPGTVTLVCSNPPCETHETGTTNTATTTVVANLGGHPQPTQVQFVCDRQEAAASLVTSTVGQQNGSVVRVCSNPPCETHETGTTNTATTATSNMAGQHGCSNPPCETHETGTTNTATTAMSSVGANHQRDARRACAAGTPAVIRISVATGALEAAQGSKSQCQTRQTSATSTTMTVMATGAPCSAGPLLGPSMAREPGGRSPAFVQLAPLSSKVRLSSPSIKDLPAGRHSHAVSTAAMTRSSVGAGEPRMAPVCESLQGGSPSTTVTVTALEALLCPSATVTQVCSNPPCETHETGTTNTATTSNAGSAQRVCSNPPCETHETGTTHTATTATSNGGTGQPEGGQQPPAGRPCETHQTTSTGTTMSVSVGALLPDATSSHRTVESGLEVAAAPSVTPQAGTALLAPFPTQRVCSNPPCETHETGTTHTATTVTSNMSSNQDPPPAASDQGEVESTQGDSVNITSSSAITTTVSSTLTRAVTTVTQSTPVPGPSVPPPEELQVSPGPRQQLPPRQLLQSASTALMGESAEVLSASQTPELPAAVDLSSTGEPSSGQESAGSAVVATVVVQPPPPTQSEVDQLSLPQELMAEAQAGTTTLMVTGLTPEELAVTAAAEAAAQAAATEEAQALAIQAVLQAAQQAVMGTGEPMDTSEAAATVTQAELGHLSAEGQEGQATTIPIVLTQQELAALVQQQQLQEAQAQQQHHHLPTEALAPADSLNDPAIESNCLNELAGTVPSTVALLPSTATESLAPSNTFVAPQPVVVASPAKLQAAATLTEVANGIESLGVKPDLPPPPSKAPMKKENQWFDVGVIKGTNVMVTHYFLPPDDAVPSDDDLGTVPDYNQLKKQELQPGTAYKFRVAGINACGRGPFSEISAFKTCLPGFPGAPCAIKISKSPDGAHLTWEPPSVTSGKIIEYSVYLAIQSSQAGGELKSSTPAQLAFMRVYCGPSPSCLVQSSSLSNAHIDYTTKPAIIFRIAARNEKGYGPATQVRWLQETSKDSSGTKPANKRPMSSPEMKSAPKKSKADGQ
substance,measurement,setting,value
355-367: polypeptide of region 355-367 of Vmw 65; 360-367 inhibitory region with 355-359 flanking stabilizing region,Level of Inhibition,"inhibition of complex formation, experiment of Example 1 repeated with various Vmw-65 polypeptides",+++
same,inhibiting complex formation (result in words),summary of the Table,effective

# From patent publication US5650488A, “Polypeptide inhibitor of the replication of HSV” (British Technology Group Limited, priority 1991, dated 1997)
